Publication PMC4481117

Key:
[1] = molecular target: D100 fragment of fibrinogen (mol. weight 100,000 Da); assay: ELISA; solid-phase binding: wells coated with Dyn A or fibrinogen D100 overnight at 4 °C, 3 % BSA; GST-αMI-domains in 20 mM Tris-HCl pH 7.4, 100 mM NaCl, 1 mM MgCl2, 1 mM CaCl2, 0.05 % Tween 20, 5 % glycerol, 1.5 h at 22 °C; detected with anti-GST mAb
[2] = molecular target: integrin Mac-1 (αMβ2, CD11b/CD18) on HEK293 cells (UniProt P11215); assay: inhibition of cell adhesion; calcein-labeled Mac-1-HEK293 cells preincubated with 1 μg/ml NIF, added to wells coated with 2 μM Dyn A; heparin 10 μg/ml on the coated wells where named; adhesion without inhibitors = 100 %
[3] = molecular target: integrin Mac-1 on IC-21 murine macrophages (mouse (endogenous in IC-21)) (UniProt P05555)
Chain of integrin Mac-1 on IC-21 murine macrophages (mouse (endogenous in IC-21)) (P05555 17-1153, chain 1 of 2): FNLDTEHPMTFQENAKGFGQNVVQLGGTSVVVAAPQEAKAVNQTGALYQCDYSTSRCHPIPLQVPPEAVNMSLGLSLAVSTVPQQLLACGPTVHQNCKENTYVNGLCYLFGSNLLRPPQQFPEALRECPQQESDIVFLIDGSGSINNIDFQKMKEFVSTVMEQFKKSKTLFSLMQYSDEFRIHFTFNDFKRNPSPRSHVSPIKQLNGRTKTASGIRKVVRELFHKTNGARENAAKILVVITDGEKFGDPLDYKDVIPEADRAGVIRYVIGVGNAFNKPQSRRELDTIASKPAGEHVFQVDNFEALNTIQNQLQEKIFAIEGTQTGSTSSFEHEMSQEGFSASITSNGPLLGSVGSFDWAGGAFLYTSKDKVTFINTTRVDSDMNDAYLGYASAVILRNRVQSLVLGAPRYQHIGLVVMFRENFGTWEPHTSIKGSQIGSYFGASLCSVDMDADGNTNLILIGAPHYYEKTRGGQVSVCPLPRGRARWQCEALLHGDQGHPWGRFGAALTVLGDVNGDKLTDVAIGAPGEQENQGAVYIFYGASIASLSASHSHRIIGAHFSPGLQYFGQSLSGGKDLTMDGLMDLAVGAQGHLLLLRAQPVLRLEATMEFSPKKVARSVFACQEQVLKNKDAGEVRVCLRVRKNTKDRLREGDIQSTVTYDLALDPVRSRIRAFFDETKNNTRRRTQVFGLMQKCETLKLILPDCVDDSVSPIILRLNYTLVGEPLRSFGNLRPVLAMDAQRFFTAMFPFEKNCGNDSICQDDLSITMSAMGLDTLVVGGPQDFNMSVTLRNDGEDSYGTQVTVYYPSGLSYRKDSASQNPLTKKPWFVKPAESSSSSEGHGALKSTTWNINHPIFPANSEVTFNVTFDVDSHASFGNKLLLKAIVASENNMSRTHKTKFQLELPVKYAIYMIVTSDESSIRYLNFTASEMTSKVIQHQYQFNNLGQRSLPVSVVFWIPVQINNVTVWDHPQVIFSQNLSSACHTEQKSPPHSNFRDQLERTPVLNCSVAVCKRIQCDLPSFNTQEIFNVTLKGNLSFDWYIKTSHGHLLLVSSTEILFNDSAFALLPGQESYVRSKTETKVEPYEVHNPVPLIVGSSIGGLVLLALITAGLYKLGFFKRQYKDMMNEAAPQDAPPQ
Chain of integrin Mac-1 on IC-21 murine macrophages (mouse (endogenous in IC-21)) (P11835 24-771, chain 2 of 2, further chain): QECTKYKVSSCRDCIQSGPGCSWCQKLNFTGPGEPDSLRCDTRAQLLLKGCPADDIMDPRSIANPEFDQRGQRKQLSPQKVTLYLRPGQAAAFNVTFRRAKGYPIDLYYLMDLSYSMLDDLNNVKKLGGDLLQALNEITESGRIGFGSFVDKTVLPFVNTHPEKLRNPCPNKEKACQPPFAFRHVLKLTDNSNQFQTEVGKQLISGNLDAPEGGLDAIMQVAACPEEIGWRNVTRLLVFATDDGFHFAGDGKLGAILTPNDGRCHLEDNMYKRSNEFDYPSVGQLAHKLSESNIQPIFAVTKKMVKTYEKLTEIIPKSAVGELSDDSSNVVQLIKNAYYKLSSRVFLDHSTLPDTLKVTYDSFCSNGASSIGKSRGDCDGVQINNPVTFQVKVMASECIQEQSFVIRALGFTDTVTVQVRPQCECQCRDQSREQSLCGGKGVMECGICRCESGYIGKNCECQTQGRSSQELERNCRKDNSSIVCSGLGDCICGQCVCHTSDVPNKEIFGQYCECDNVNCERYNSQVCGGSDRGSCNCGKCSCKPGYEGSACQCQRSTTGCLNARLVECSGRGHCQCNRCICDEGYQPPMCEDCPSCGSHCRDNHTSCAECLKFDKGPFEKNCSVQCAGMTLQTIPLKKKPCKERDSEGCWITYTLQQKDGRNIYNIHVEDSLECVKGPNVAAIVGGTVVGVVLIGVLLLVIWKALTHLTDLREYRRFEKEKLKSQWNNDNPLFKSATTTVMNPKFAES

| Substance | fold binding over the nonactive αMI-domain [1] | percent inhibition of the adhesion of Mac-1-HEK293 cells to Dyn A (2 μM coating) [2] | percent inhibition of the adhesion of Mac-1-HEK293 cells to Dyn A (2 μM coating), NIF combined with heparin [2] | inhibition by NIF (2 μg/ml) of the phagocytosis of Dyn A-coated beads by IC-21 macrophages (blocked pair: Dyn A and Mac-1) [3] |
| --- | --- | --- | --- | --- |
| GST-αMI-domain, active conformation (residues Glu123-Lys315) (from UniProt P11215 139-331) (domain or fragment) | 3.5 fold |  |  |  |
| Neutrophil inhibitory factor (NIF) (natural protein) |  | 65% | > 95% | 70% |
